In PMC11949052:

B1: C1-esterase inhibitor (C1-INH): N253A (protein)
parent chain: MASRLTLLTLLLLLLAGDRASSNPNATSSSSQDPESLQDRGEGKVATTVISKMLFVEPILEVSSLPTTNSTTNSATKITANTTDEPTTQPTTEPTTQPTIQPTQPTTQLPTDSPTQPTTGSFCPGPVTLCSDLESHSTEAVLGDALVDFSLKLYHAFSAMKKVETNMAFSPFSIASLLTQVLLGAGENTKTNLESILSYPKDFTCVHQALKGFTTKGVTSVSQIFHSPDLAIRDTFVNASRTLYSSSPRVLSNNSDANLELINTWVAKNTNNKISRLLDSLPSDTRLVLLNAIYLSAKWKTTFDPKKTRMEPFHFKNSVIKVPMMNSKKYPVAHFIDQTLKAKVGQLQLSHNLSLVILVPQNLKHRLEDMEQALSPSVFKAIMEKLEMSKFQPTLLTLPRIKVTTSQDMLSIMEKLEFFDFSYDLNLCGLTEDPDLQVSAMQHQTVLELTETGVEAAAASAISVARTLLVFEVQQPFLFVLWDQQHKFPVFMGRVYDPRA
B2: C1-esterase inhibitor (C1-INH): S255G (protein)
parent chain: MASRLTLLTLLLLLLAGDRASSNPNATSSSSQDPESLQDRGEGKVATTVISKMLFVEPILEVSSLPTTNSTTNSATKITANTTDEPTTQPTTEPTTQPTIQPTQPTTQLPTDSPTQPTTGSFCPGPVTLCSDLESHSTEAVLGDALVDFSLKLYHAFSAMKKVETNMAFSPFSIASLLTQVLLGAGENTKTNLESILSYPKDFTCVHQALKGFTTKGVTSVSQIFHSPDLAIRDTFVNASRTLYSSSPRVLSNNSDANLELINTWVAKNTNNKISRLLDSLPSDTRLVLLNAIYLSAKWKTTFDPKKTRMEPFHFKNSVIKVPMMNSKKYPVAHFIDQTLKAKVGQLQLSHNLSLVILVPQNLKHRLEDMEQALSPSVFKAIMEKLEMSKFQPTLLTLPRIKVTTSQDMLSIMEKLEFFDFSYDLNLCGLTEDPDLQVSAMQHQTVLELTETGVEAAAASAISVARTLLVFEVQQPFLFVLWDQQHKFPVFMGRVYDPRA
B3: C1-esterase inhibitor (C1-INH): S354G (protein)
parent chain: MASRLTLLTLLLLLLAGDRASSNPNATSSSSQDPESLQDRGEGKVATTVISKMLFVEPILEVSSLPTTNSTTNSATKITANTTDEPTTQPTTEPTTQPTIQPTQPTTQLPTDSPTQPTTGSFCPGPVTLCSDLESHSTEAVLGDALVDFSLKLYHAFSAMKKVETNMAFSPFSIASLLTQVLLGAGENTKTNLESILSYPKDFTCVHQALKGFTTKGVTSVSQIFHSPDLAIRDTFVNASRTLYSSSPRVLSNNSDANLELINTWVAKNTNNKISRLLDSLPSDTRLVLLNAIYLSAKWKTTFDPKKTRMEPFHFKNSVIKVPMMNSKKYPVAHFIDQTLKAKVGQLQLSHNLSLVILVPQNLKHRLEDMEQALSPSVFKAIMEKLEMSKFQPTLLTLPRIKVTTSQDMLSIMEKLEFFDFSYDLNLCGLTEDPDLQVSAMQHQTVLELTETGVEAAAASAISVARTLLVFEVQQPFLFVLWDQQHKFPVFMGRVYDPRA
B4: C1-esterase inhibitor (C1-INH): N352S (protein)
parent chain: MASRLTLLTLLLLLLAGDRASSNPNATSSSSQDPESLQDRGEGKVATTVISKMLFVEPILEVSSLPTTNSTTNSATKITANTTDEPTTQPTTEPTTQPTIQPTQPTTQLPTDSPTQPTTGSFCPGPVTLCSDLESHSTEAVLGDALVDFSLKLYHAFSAMKKVETNMAFSPFSIASLLTQVLLGAGENTKTNLESILSYPKDFTCVHQALKGFTTKGVTSVSQIFHSPDLAIRDTFVNASRTLYSSSPRVLSNNSDANLELINTWVAKNTNNKISRLLDSLPSDTRLVLLNAIYLSAKWKTTFDPKKTRMEPFHFKNSVIKVPMMNSKKYPVAHFIDQTLKAKVGQLQLSHNLSLVILVPQNLKHRLEDMEQALSPSVFKAIMEKLEMSKFQPTLLTLPRIKVTTSQDMLSIMEKLEFFDFSYDLNLCGLTEDPDLQVSAMQHQTVLELTETGVEAAAASAISVARTLLVFEVQQPFLFVLWDQQHKFPVFMGRVYDPRA
B5: C1-esterase inhibitor (C1-INH): N238A (protein)
parent chain: MASRLTLLTLLLLLLAGDRASSNPNATSSSSQDPESLQDRGEGKVATTVISKMLFVEPILEVSSLPTTNSTTNSATKITANTTDEPTTQPTTEPTTQPTIQPTQPTTQLPTDSPTQPTTGSFCPGPVTLCSDLESHSTEAVLGDALVDFSLKLYHAFSAMKKVETNMAFSPFSIASLLTQVLLGAGENTKTNLESILSYPKDFTCVHQALKGFTTKGVTSVSQIFHSPDLAIRDTFVNASRTLYSSSPRVLSNNSDANLELINTWVAKNTNNKISRLLDSLPSDTRLVLLNAIYLSAKWKTTFDPKKTRMEPFHFKNSVIKVPMMNSKKYPVAHFIDQTLKAKVGQLQLSHNLSLVILVPQNLKHRLEDMEQALSPSVFKAIMEKLEMSKFQPTLLTLPRIKVTTSQDMLSIMEKLEFFDFSYDLNLCGLTEDPDLQVSAMQHQTVLELTETGVEAAAASAISVARTLLVFEVQQPFLFVLWDQQHKFPVFMGRVYDPRA
B6: C1-esterase inhibitor (C1-INH): N352A (protein)
parent chain: MASRLTLLTLLLLLLAGDRASSNPNATSSSSQDPESLQDRGEGKVATTVISKMLFVEPILEVSSLPTTNSTTNSATKITANTTDEPTTQPTTEPTTQPTIQPTQPTTQLPTDSPTQPTTGSFCPGPVTLCSDLESHSTEAVLGDALVDFSLKLYHAFSAMKKVETNMAFSPFSIASLLTQVLLGAGENTKTNLESILSYPKDFTCVHQALKGFTTKGVTSVSQIFHSPDLAIRDTFVNASRTLYSSSPRVLSNNSDANLELINTWVAKNTNNKISRLLDSLPSDTRLVLLNAIYLSAKWKTTFDPKKTRMEPFHFKNSVIKVPMMNSKKYPVAHFIDQTLKAKVGQLQLSHNLSLVILVPQNLKHRLEDMEQALSPSVFKAIMEKLEMSKFQPTLLTLPRIKVTTSQDMLSIMEKLEFFDFSYDLNLCGLTEDPDLQVSAMQHQTVLELTETGVEAAAASAISVARTLLVFEVQQPFLFVLWDQQHKFPVFMGRVYDPRA

Assay: ELISA and Western blot of HEK293T supernatants
Settings: glycan lost; control: wild type

expression_or_secretion, percent_of_wt, no change:
B1
B2
B3
B4
B5
B6
